Results as given in FireProtDB (doi:10.1021/bi982078m).

Conditions: Aspergillus oryzae (strain ATCC 42149 / RIB 40), pH 3, 25 °C, Absorbance, glycine-HCl 0.05 M, reversible: yes, whole UniProt chain shown

B1: Guanyl-specific ribonuclease T1 wild type, P00651 (protein)
chain: MMYSKLLTLTTLLLPTALALPSLVERACDYTCGSNCYSSSDVSTAQAAGYQLHEDGETVGSNSYPHKYNNYEGFDFSVSSPYYEWPILSSGDVYSGGSPGADRVVFNENNQLAGVITHTGASGNNFVECT
- denaturant m value (GdnHCl, KCl 0.1-1.0 M): 2.83 kcal/mol/M
- denaturant midpoint (higher = more stable) (GdnHCl, KCl 0.1-1.0 M): 1.78 M
- unfolding free energy (GdnHCl, KCl 0.1-1.0 M): 5.03 kcal/mol
- denaturant m value (Urea, KCl 0.10 M): 1.98 kcal/mol/M
- denaturant midpoint (higher = more stable) (Urea, KCl 0.10 M): 2.05 M
- unfolding free energy (Urea, KCl 0.10 M): 4.07 kcal/mol
- denaturant m value (Urea, KCl 0.50 M): 1.71 kcal/mol/M
- denaturant midpoint (higher = more stable) (Urea, KCl 0.50 M): 2.4 M
- unfolding free energy (Urea, KCl 0.50 M): 4.1 kcal/mol
- denaturant m value (Urea, KCl 1.00 M): 1.59 kcal/mol/M
- denaturant midpoint (higher = more stable) (Urea, KCl 1.00 M): 2.82 M
- unfolding free energy (Urea, KCl 1.00 M): 4.49 kcal/mol
- denaturant m value (Urea, KCl 1.25 M): 1.65 kcal/mol/M
- denaturant midpoint (higher = more stable) (Urea, KCl 1.25 M): 3.02 M
- unfolding free energy (Urea, KCl 1.25 M): 4.99 kcal/mol
- denaturant m value (Urea, KCl 1.50 M): 1.54 kcal/mol/M
- denaturant midpoint (higher = more stable) (Urea, KCl 1.50 M): 3.41 M
- unfolding free energy (Urea, KCl 1.50 M): 5.26 kcal/mol
